According to US20230159613A1 (published 2023):
Substitutions are numbered along the chain they refer to. Numbers in names are those of the source.

Assays:
[1] = target: T1, KRAS G12V peptide on HLA-A*11:01 (human); experiment: Kd or kinetics
T1 peptide: VVGAVGVGK

[2] = target: T2, KRAS G12V peptide on HLA-A*11:01 (human); experiment: cytokine release
T2 peptide: VVVGAVGVGK

[3] = target: T3, KRAS (short peptide without mutation) peptide on HLA-A*11:01 (human); experiment: cytokine release
T3 peptide: VVGAGGVGK

[4] = target: T4, KRAS (short peptide without mutation) peptide on HLA-A*11:01 (human); experiment: cytokine release
T4 peptide: VVVGAGGVGK

[5] = target: T5, KRAS G12D peptide on HLA-A*11:01 (human); experiment: cytokine release
T5 peptide: VVGADGVGK

[6] = target: T6, KRAS G12D peptide on HLA-A*11:01 (human); experiment: cytokine release
T6 peptide: VVVGADGVGK

[7] = target: T7, other antigen short peptide (source not named) peptide on HLA-A*11:01 (human); experiment: cytokine release
T7 peptide: SSCSSCPLSK

B1: KRAS G12V antigen short peptide-specific TCR of SEQ ID NOs 1 and 5 (TCR, V domains shown)
Valpha: QKEVEQNSGPLSVPEGAIASLNCTYSDRVSQSFFWYRQYSGKSPELIMSIYSNGDKEDGRFTAQLNKASQYVSLLIRDSQPSDSATYLCASLKGNNDMRFGAGTRLTVKP
Vbeta: GAGVSQSPRYKVAKRGQDVALRCDPISGHVSLFWYQQALGQGPEFLTYFQNEAQLDKSGLPSDRFFAERPEGSVSTLKIQRTQQEDSAVYLCASSSSRWEQQFFGPGTRLTVL
binding result [1]: recognises | binding result [2]: recognises | binding result [3]: no recognition | binding result [4]: no recognition | binding result [5]: no recognition | binding result [6]: no recognition | binding result [7]: no recognition

B2: KRAS G12V antigen short peptide-specific soluble single chain TCR of SEQ ID NO 30 (TCR, V domains shown)
Valpha: B1 Valpha with A17E, I18N, A19V, L21I, L75E, S79V
Vbeta: B1 Vbeta with K11L, V12S, A13V, A20T, L39P, F66N, T82V, Q84P, L113D
binding result [1]: recognises
